Test results taken from article PMC7941734 (Cell reports, 2021).

Molecular target: His6-tagged ASF1A S166E (recombinant) (human, UniProt Q9Y294 1-204, S166E)
Experiment: pull-down

His6-tagged ASF1A S166E (recombinant), sequence (Q9Y294 whole entry S166E): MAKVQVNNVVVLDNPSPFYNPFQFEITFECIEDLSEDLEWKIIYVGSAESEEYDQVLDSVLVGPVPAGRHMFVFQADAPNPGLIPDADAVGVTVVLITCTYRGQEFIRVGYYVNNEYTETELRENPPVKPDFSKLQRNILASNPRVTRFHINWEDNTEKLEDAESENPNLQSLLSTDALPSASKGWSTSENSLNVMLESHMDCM

B1: GST-tagged FHA domain of MDC1 (aa 1–158) (domain or fragment, human, UniProt Q14676 1-158, looked up)
chain: MEDTQAIDWDVEEEEETEQSSESLRCNVEPVGRLHIFSGAHGPEKDFPLHLGKNVVGRMPDCSVALPFPSISKQHAEIEILAWDKAPILRDCGSLNGTQILRPPKVLSPGVSHRLRDQELILFADLLCQYHRLDVSLPFVSRGPLTVEETPRVQGETQ
- binding result: binds
